Non-standard residues stand in square brackets, D forms with d. No end group written: not given here. Ahx = NCCCCCC(=O)O
Molecular target: bombesin receptor expressed in transfected Xenopus laevis melanophores (plasmid pJG3.6BR)
Assay: cell-based or functional assay

KKKKKKKKKKKKKKKKKKKK[Ahx]GGGQQRLGNQWAVGHLM-NH2 (ends and bridges not checked) [Bombesin monomer (K(20)-εAhx-GGG-QQRLGNQWAVGHLM)]
EC50 (t=30 min) of pigment dispersion in melanophores transfected with the bombesin receptor: 110 nM

Source: patent US6500934 (dated 2002)
